Measured values published in patent US8187838B2, “β-Galactoside-α2, 6-sialyltransferase, a gene encoding thereof, and a method for producing thereof” (Japan Tobacco Inc., priority 2006, dated 2012).
Entries after “also recorded” stand apart in the source; their conditions may differ.

How the values were obtained:
[1] = Sialyltransferase activity of samples after each purification step; format: biochemical; details: for Specific activity (U/mg) / Total activity (U): Bis-Tris pH 6, 5 minutes, 25° C.
Description: (§1) Sialyltransferase activity was measured as described in J. Biochem., 120, 104-110 (1996) (which is hereby incorporated by reference in its entirety). More specifically, the enzymatic reaction was accomplished by using CMP-NeuAc (70 nmol, containing about 20,000 cpm CMP-NeuAc in which NeuAc was labeled with ^14C; NeuAc represents N-acetylneuraminic acid) as a glycosyl donor substrate, lactose (1.25 μmol) as a glycosyl acceptor substrate, NaCl added to give a concentration of 0.5 M, and the enzyme-containing reaction solution (30 μl) prepared as described above. The enzymatic reaction was carried out at 25° C. for about 10 to 180 minutes. After completion of the reaction, 1.97 ml of 5 mM phosphate buffer (pH 6.8) was added to the reaction solution, which was then applied to a Dowex 1×8 (PO4^3− form, 0.2×2 cm, BIO-RAD) column. The radioactivity was measured for the reaction product, i.e., sialyllactose contained in the eluate (0 to 2 ml) from this column to calculate the enzyme activity. One enzyme unit (1 U) is defined as the amount of enzyme required to transfer 1 micromole of sialic acid per minute.
(§2) The enzyme activity was measured by the method reported in J. Biochem. 120, 104-110 (1996), in the same manner as described in Example 1 under conditions as indicated in the footnote of Table 3-1. For protein quantification, a Coomassie Protein Assay Reagent (PIERCE) was used according to the instruction manual attached thereto. One enzyme unit (1U) was defined as the amount of enzyme required to transfer 1 micromole of sialic acid per minute.
Reaction time: 5 minutes Reaction temperature: 25° C.
as §2, with “3-2.” for “3-1.”
(§3) Reaction Conditions Reaction composition:
Reaction time: 5 minutes Reaction temperature: 30° C.

[2] = Sialyltransferase activity in homogenate of E. coli carrying the JT-ISH-224 gene clones (14C-NeuAc transfer to lactose); format: biochemical
Description: as §1
An induction experiment of protein expression was performed on the five clones obtained in (3) above (i.e., ISH224-N0C0/pTrc, ISH224-N1C0/pTrc, ISH224-N2C0/pTrc, ISH224-N3C0/pTrc and ISH224-N3.1C0/pTrc). A single colony of E. coli TB1 having the expression vector pTrc99A carrying each clone was inoculated into LB medium (6 ml) containing an antibiotic, ampicillin (final concentration 100 μg/mL), and pre-cultured at 30° C. to about A600=0.5, followed by addition of IPTG (isopropyl-β-D(−)-thiogalactopyranoside, Wako Pure Chemical Industries, Ltd., Japan) at a final concentration of 1 mM. After culturing with shaking at 30° C. for an additional 4 hours, the cells in 4 ml culture solution were collected by centrifugation. These cells were suspended in 200 μl of 20 mM Bis-Tris buffer (pH 7.0) containing 0.336% Triton® X-100 and 0.5 M sodium chloride, and ultrasonically homogenized under ice cooling. The resulting homogenate was defined as a crude enzyme solution, diluted 200-fold with 20 mM cacodylate buffer (pH 5.0) containing 0.336% Triton® X-100, and then provided for activity measurement. The reaction was carried out in duplicate. The reaction conditions are as indicated in the footnotes of Tables 1-1 and 1-2.
as §3
Reaction time: 2 minutes Reaction temperature: 30° C.

[3] = after MONO Q (purified fraction)

B1: ISH224-N1C0 (protein, listed as Photobacterium sp.)
chain: MSEENTQSIIKNDINKTIIDEEYVNLEPINQSNISFTKHSWVQTCGTQQLLTEQNKESISLSVVAPRLDDDEKYCFDFNGVSNKGEKYITKVTLNVVAPSLEVYVDHASLPTLQQLMDIIKSEEENPTAQRYIAWGRIVPTDEQMKELNITSFALINNHTPADLVQEIVKQAQTKHRLNVKLSSNTAHSFDNLVPILKELNSFNNVTVTNIDLYDDGSAEYVNLYNWRDTLNKTDNLKIGKDYLEDVINGINEDTSNTGTSSVYNWQKLYPANYHFLRKDYLTLEPSLHELRDYIGDSLKQMQWDGFKKFNSKQQELFLSIVNFDKQKLQNEYNSSNLPNFVFTGTTVWAGNHEREYYAKQQINVINNAINESSPHYLGNSYDLFFKGHPGGGIINTLIMQNYPSMVDIPSKISFEVLMMTDMLPDAVAGIASSLYFTIPAEKIKFIVFTSTETITDRETALRSPLVQVMIKLGIVKEENVLFWADLPNCETGVCIAV
Specific activity (U/mg) ([1]; Crude enzyme solution): 12.0 U/mg
Total activity (U) ([1]; Crude enzyme solution): 13167 U
Specific activity (U/mg) ([1]; after Hydroxyapatite): 68.3 U/mg
Total activity (U) ([1]; after Hydroxyapatite): 9448 U
Specific activity (U/mg) [1, 3]: 113 U/mg
Total activity (U) [1, 3]: 2720 U
Specific activity (U/mg) ([1]; after Q SEPHAROSE): 31.8 U/mg
Total activity (U) ([1]; after Q SEPHAROSE): 11794 U
fold higher specific activity than Pasteurella multocida-derived β-galactoside-α2,3-sialyltransferase (60 U/mg) ([1]; purified fraction): about 1.9 fold
fold higher specific activity than β-galactoside-α2,6-sialyltransferase derived from Photobacterium damselae strain JT0160 (5.5 U/mg) ([1]; purified fraction): about 21 fold
Radioactivity (cpm) Round 1 ([2]; crude enzyme solution diluted 200-fold, lactose, 14C-CMP-sialic acid, 2 minutes, 30° C., Round 1): 1552 cpm
Radioactivity (cpm) Round 2 ([2]; crude enzyme solution diluted 200-fold, lactose, 14C-CMP-sialic acid, 2 minutes, 30° C., Round 2): 1711 cpm
Radioactivity (cpm) Average ([2]; crude enzyme solution diluted 200-fold, lactose, 14C-CMP-sialic acid, 2 minutes, 30° C., average of duplicate): 1631.5 cpm
sialyltransferase activity of the expressed clone (in words) ([2]; crude enzyme solution from E. coli TB1, listed as ISH224-N1C0/pTrc): expressed sialyltransferase; also recorded: retained the activity
